Source: patent US20250340662A1
Where a chain is given by its changes, count along the chain named.

T1: Human v6-peptide (human)
T1 sequence (peptide, N-terminal biotin): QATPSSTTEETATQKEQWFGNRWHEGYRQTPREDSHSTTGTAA

B1: BIWA4 IgG1 LALA (antibody, from another filing, V domains shown)
VH: EVQLVESGGGLVKPGGSLRLSCAASGFTFSSYDMSWVRQAPGKGLEWVSTISSGGSYTYYLDSIKGRFTISRDNAKNSLYLQMNSLRAEDTAVYYCARQGLDYWGRGTLVTVSS
VL: EIVLTQSPATLSLSPGERATLSCSASSSINYIYWYQQKPGQAPRLLIYLTSNLASGVPARFSGSGSGTDFTLTISSLEPEDFAVYYCLQWSSNPLTFGGGTKVEIKR
B2: BIWA4 IgG1 LALA IAHA (antibody, from another filing, V domains shown)
VH: B1 VH
VL: B1 VL
B3: AL-MN114-435 hIgG4 (antibody, V domains shown)
VH: EVQLLESGGGLVQPGGSLRLSCAASGFTFSSYAMSWVRQAPGKGLEWVSAISAGGSSTFYADSVKGRFTISRDNSKNTLYLQMNSLRAEDTAVYYCARHYYSDSDYRSSAAMDYWGQGTLVTVSS
VL: DIQMTQSPSSLSASVGDRVTITCRASQSISSYLNWYQQKPGKAPKLLIYAASSLQSGVPSRFSGSGSGTDFTLTISSLQPEDFATYYCQQDLYLLTFGQGTKLEIK
B4: AL-MN114-79 hIgG4 (antibody, V domains shown)
VH: B3 VH with S30R, Y32F, A50T
VL: B3 VL with S30A, S31N, S53T
B5: AL-MN114-71 hIgG4 (antibody, V domains shown)
VH: B3 VH with T28S, S30R, Y32F, A53G
VL: B3 VL with S53T
B6: AL-MN114-42 hIgG4 (antibody, V domains shown)
VH: B3 VH with A53G, S56Y, F59Y
VL: B3 VL with S28T, S30G, A50S, S53I
B7: AL-MN114-19 hIgG4 (antibody, V domains shown)
VH: B3 VH with T28S, S30G, A53G
VL: B3 VL with A50S
B8: AL-MN114-451 hIgG4 (antibody, V domains shown)
VH: B3 VH with S56Y, F59Y
VL: B3 VL with S30G, A50T, S53T
B9: AL-MN114-465 hIgG4 (antibody, V domains shown)
VH: B3 VH with T28S, S30G
VL: B3 VL with A50T
B10: AL-MN114-444 hIgG4 (antibody, V domains shown)
VH: B3 VH with S30R, Y32F, A53G
VL: B3 VL with S30G, A50S
B11: AL-MN114-429 hIgG4 (antibody, V domains shown)
VH: B3 VH with T28S, Y32F, F59Y
VL: B3 VL
B12: AL-MN114-423 hIgG4 (antibody, V domains shown)
VH: B3 VH with S56T, F59Y
VL: B3 VL
B13: AL-MN114-126 hIgG4 (antibody, V domains shown)
VH: B3 VH with F59Y
VL: B3 VL
B14: AL-MN114-18 hIgG4 (antibody, V domains shown)
VH: B3 VH with T28S, S30G, Y32F, A53G, F59Y
VL: B3 VL with S28T, S30A, A50T, S53N
B15: AL-MN114-23 hIgG4 (antibody, V domains shown)
VH: B3 VH with T28S, S30R, S31N, Y32F, A53G, S56G
VL: B3 VL with S28N, A50S, S53I
B16: AL-MN114-145 hIgG4 (antibody, V domains shown)
VH: B3 VH with T28S, Y32F
VL: B3 VL with S30G, A50S, S53N
B17: AL-MN114-439 hIgG4 (antibody, V domains shown)
VH: B3 VH with T28S, S30G, Y32F
VL: B3 VL
B18: AL-MN114-93 hIgG4 (antibody, V domains shown)
VH: B3 VH with T28S, S30G, Y32F, F59Y
VL: B3 VL
B19: AL-MN114-460 hIgG4 (antibody, V domains shown)
VH: B3 VH with T28S, S30G, F59Y
VL: B3 VL with S30G, A50S
B20: AL-MN114-452 hIgG4 (antibody, V domains shown)
VH: B3 VH with T28S
VL: B3 VL with S30G, A50S
B21: AL-MN114-132 hIgG4 (antibody, V domains shown)
VH: B3 VH with A53G, F59Y
VL: B3 VL
B22: AL-MN114-14 hIgG4 (antibody, V domains shown)
VH: B3 VH with A53G, G54S, S56R
VL: B3 VL

What follows are binders tested against Human CD44v6 iso4-Fc (human) (UniProt P16070) (assay: SPR SCK, antibody immobilised, CD44v6-Fc injected; apparent KD).
Chain of Human CD44v6 iso4-Fc (human) (P16070 other isoform, or with tags, fused parts or gaps limits assumed): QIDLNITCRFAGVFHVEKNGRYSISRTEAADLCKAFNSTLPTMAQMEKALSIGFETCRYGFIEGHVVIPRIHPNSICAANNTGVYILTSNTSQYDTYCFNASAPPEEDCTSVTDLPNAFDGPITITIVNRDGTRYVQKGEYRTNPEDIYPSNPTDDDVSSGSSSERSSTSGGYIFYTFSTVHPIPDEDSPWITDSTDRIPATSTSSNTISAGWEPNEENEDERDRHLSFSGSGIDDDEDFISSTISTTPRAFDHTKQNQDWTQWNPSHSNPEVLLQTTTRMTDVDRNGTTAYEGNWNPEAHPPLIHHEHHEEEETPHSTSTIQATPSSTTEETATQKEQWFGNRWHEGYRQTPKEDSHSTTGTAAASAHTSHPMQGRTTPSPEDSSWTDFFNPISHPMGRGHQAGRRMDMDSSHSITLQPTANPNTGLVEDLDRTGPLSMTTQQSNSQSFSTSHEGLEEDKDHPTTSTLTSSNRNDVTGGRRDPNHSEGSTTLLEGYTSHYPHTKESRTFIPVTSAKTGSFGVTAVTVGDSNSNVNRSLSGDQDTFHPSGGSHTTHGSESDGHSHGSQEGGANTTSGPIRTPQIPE
B1 was tested, and the Kd was 0.72 nM.
In the case of B2, the Kd is reported as 14 nM.

What follows are binders tested against CD44v6 on cultured cancer cells (BHT-101, ACT-1, A431) (human) (UniProt P16070) (assay: LigandTracer, 125I-IgG4 on BHT-101 cells).
Work on B3 yielded a Kd of 0.02 nM.
With B4 the Kd was 0.03 nM.
B5 showed a Kd of 0.02 nM.
Work on B6 yielded a Kd of 0.04 nM.
B7 showed a Kd of 0.04 nM.
Work on B8 yielded a Kd of 0.03 nM.
For B9, the Kd was 0.03 nM.
B10 gave a Kd of 0.02 nM.
Binder B11 has a Kd of 0.06 nM.
Work on B12 yielded a Kd of 0.1 nM.
B13 showed a Kd of 0.04 nM.
B14 gave a Kd of 0.02 nM.

Each binder was assayed against CD44v6 on cultured cancer cells (BHT-101, ACT-1, A431) (human) (UniProt P16070) (assay: LigandTracer, 177Lu-antibody on A431 cells).
With B9 the Kd was 0.03 nM.

Each binder was assayed against CD44v6 on cultured cancer cells (BHT-101, ACT-1, A431) (human) (UniProt P16070) (assay: live BHT-101 cells; apparent KD).
Binder B3 has a Kd of under 0.2 nM.
In the case of B4, the Kd is reported as under 0.2 nM.
Binder B5 has a Kd of under 0.2 nM.
For B15, the Kd was under 0.2 nM.
Binder B16 has a Kd of under 0.2 nM.
In the case of B6, the Kd is reported as under 0.2 nM.
Binder B7 has a Kd of under 0.2 nM.
B8 was tested, and the Kd was under 0.2 nM.
B17 showed a Kd of under 0.2 nM.
B9 gave a Kd of under 0.2 nM.
Work on B18 yielded a Kd of under 0.2 nM.
In the case of B19, the Kd is reported as under 0.2 nM.
Binder B10 has a Kd of under 0.2 nM.
B11 showed a Kd of under 0.2 nM.
B20 showed a Kd of under 0.2 nM.
Work on B21 yielded a Kd of under 0.2 nM.
B22 was tested, and the Kd was under 0.2 nM.
B12 showed a Kd of under 0.2 nM.
With B13 the Kd was under 0.2 nM.
In the case of B14, the Kd is reported as under 0.2 nM.

What follows are binders tested against T1, Human v6-peptide (human) (assay: SPR SCK, antibody immobilised, peptide injected).
Work on B1 yielded a Kd of 15 nM, a koff of 0.0035 s⁻¹ and a kon of 240000 M⁻¹ s⁻¹.
Work on B2 yielded a Kd of 73 nM, a koff of 0.0027 s⁻¹ and a kon of 36000 M⁻¹ s⁻¹.

Each binder was assayed against Cynomolgus v6-peptide (cynomolgus) (assay: SPR SCK, antibody immobilised, peptide injected).
Chain of Cynomolgus v6-peptide (cynomolgus) (peptide, as listed by the source): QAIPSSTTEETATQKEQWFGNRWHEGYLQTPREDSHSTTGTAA
B1 showed a Kd of 12 nM, a koff of 0.0035 s⁻¹ and a kon of 280000 M⁻¹ s⁻¹.
Binder B2 has a Kd of 44 nM, a koff of 0.0036 s⁻¹ and a kon of 83000 M⁻¹ s⁻¹.

The binders below were run against Human CD44v6 iso4-Fc (human) (UniProt P16070) (assay: SPR SCK, antibody immobilised, CD44v6-Fc injected).
Binder B1 has a koff of 0.00027 s⁻¹ and a kon of 370000 M⁻¹ s⁻¹.
With B2 the koff was 0.00033 s⁻¹ and the kon was 24000 M⁻¹ s⁻¹.
